For the experiment, the target named is PfHsp90 (Plasmodium falciparum (endogenous in strain 3D7)) (UniProt Q8IC05).

Among the data in article PMC4552884 are decrease in signal of the precursor PfHsp60 spot in the PfHsp60 immunoprecipitate of 35S-labelled parasites treated with 5 uM Geldanamycin against DMSO (2DGE, phosphorimaging) values, retold here.

In the case of precursor PfHsp60 (natural protein), the decrease in signal of the precursor PfHsp60 spot in the PfHsp60 immunoprecipitate of 35S-labelled parasites treated with 5 uM Geldanamycin against DMSO (2DGE, phosphorimaging) came out at 80%.
